The source of these data is paper PMC7733473, “Aberrant interaction of FUS with the U1 snRNA provides a molecular mechanism of FUS induced amyotrophic lateral sclerosis”.

Data set [1] concerns FUS-RBD (RRM-RGG2-ZnF). The data set is described as follows: competition. The following applies: equimolar Sm proteins and U1-70K (1-216) present; ITC: 10 mM Na phosphate pH 6.8, 50 mM NaCl, 1 mM β-mercaptoethanol, 25 °C; NMR 313 K; SEC: 10 mM Na phosphate pH 6.8, 100 mM NaCl, 2 mM DTT; EMSA: 10 mM HEPES …; scale: % reduction of FUS capacity to impair core snRNP assembly. (In general: A gel shift assay detects complexes by their altered migration in electrophoresis.)

Data set [2] has as its system FUS-RBD WT, EMSA construct. The data set is described as follows: EMSA. The following applies: 5 mM Mg2+, yeast tRNA and salmon sperm DNA; value given jointly with ITC; ITC: 10 mM Na phosphate pH 6.8, 50 mM NaCl, 1 mM β-mercaptoethanol, 25 °C; NMR 313 K; SEC: 10 mM Na phosphate pH 6.8, 100 mM NaCl, 2 mM DTT; EMSA: 10 mM HEPES ….
In data set [3] the test system is FUS-RBD (RRM-RGG2-ZnF). The data set is described as follows: ITC. The following applies: n = 0.92; K = (1.37 ± 0.23)e7; ITC: 10 mM Na phosphate pH 6.8, 50 mM NaCl, 1 mM β-mercaptoethanol, 25 °C; NMR 313 K; SEC: 10 mM Na phosphate pH 6.8, 100 mM NaCl, 2 mM DTT; EMSA: 10 mM HEPES ….
Data set [4] has as its target FUS-RRM (RRM-RGG2) (UniProt P35637). The data set is described as follows: ITC. Conditions: n = 0.85; K = (1.25 ± 0.08)e5; 13C/15N in RNA-observed NMR; ITC: 10 mM Na phosphate pH 6.8, 50 mM NaCl, 1 mM β-mercaptoethanol, 25 °C; NMR 313 K; SEC: 10 mM Na phosphate pH 6.8, 100 mM NaCl, 2 mM DTT; EMSA: 10 mM HEPES ….
The target of data set [5] is FUS-RRM (RRM-RGG2) (UniProt P35637 260-390). The data set is described as follows: NMR titration; ITC: 10 mM Na phosphate pH 6.8, 50 mM NaCl, 1 mM β-mercaptoethanol, 25 °C; NMR 313 K; SEC: 10 mM Na phosphate pH 6.8, 100 mM NaCl, 2 mM DTT; EMSA: 10 mM HEPES pH 7.3, 100 mM KCl, 5 mM MgCl2, tRNA and ssDNA 10 µg/ml each, room temperature. Conditions: protein: recombinant.
Sequence of FUS-RRM (RRM-RGG2) (UniProt P35637 260-390) (P35637 260-390): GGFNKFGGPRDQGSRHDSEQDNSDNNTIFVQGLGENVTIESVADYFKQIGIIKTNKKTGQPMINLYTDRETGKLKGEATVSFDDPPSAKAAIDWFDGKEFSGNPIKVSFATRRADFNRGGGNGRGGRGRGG

Sequence of FUS-RRM (RRM-RGG2) (UniProt P35637) (P35637 260-390): as above

U1 SL34 returned a binding signal in data set [1] of 75. Besides, the Kd in data set [2] and in data set [3] was 70 nM in each case.

Molecule U1 SL3 showed a Kd in data set [4] of 8000 nM.

For GGCUCUGGUUUCUUCGGGAACAACUCUGAGCC (structured_RNA) [U5 IL-1 fragment], the binding result in data set [5] (hairpin with internal bulge, UUCG loop) is listed as “binds”.

Turning to GGACUUGAAAUAUAGUCC (structured_RNA) [U4 3'-ISL fragment], in data set [5] (hairpin), the binding result was “binds”.

With UAUACUAA (ssRNA) [U6 21-28], in data set [5] (single strand), the binding result is on record as “binds”.

Usually Kd stands for the equilibrium constant for the complex coming apart.
